Results: patent US20230167164A1 (IMMUNOWAKE, published 2023)
Numbering of substitutions follows the chain as printed. Numbers in names are those of the source.

T1: mouse PD-1 (mouse, UniProt Q02242 25-167, limits assumed)
T1 construct: also called mPD-1
T1 sequence (looked up): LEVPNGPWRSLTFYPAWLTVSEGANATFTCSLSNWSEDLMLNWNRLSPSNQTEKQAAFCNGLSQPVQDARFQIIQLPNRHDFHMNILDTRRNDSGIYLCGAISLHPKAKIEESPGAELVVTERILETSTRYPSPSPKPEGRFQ

B1: IL-12(E59A/F60A)/anti-PD-1(D100G) (other)
heavy 1: QVQLVESGGGVVQPGRSLRLDCKASGITFSNSGMHWVRQAPGKGLEWVAVIWYDGSKRYYADSVKGRFTISRDNSKNTLFLQMNSLRAEDTAVYYCATNGDYWGQGTLVTVSSASTKGPSVFPLAPSSKSTSGGTAALGCLVKDYFPEPVTVSWNSGALTSGVHTFPAVLQSSGLYSLSSVVTVPSSSLGTQTYICNVNHKPSNTKVDKKVEPKSCDKPGSGIWELKKDVYVVELDWYPDAPGEMVVLTCDTPEEDGITWTLDQSSEVLGSGKTLTIQVKAAGDAGQYTCHKGGEVLSHSLLLLHKKEDGIWSTDILKDQKEPKNKTFLRCEAKNYSGRFTCWWLTTISTDLTFSVKSSRGSSDPQGVTCGAATLSAERVRGDNKEYEYSVECQEDSACPAAEESLPIEVMVDAVHKLKYENYTSSFFIRDIIKPDPPKNLQLKPLKNSRQVEVSWEYPDTWSTPHSYFSLTFCVQVQGKSKREKKDRVFTDKTSATVICRKNASISVRAQDRYYSSSWSEWASVPCSGGGGSGGGGSGGGGSGGGGSGRNLPVATPDPGMFPCLHHSQNLLRAVSNMLQKARQTLEFYPCTSEEIDHEDITKDKTSTVEACLPLELTKNESCLNSRETSFITNGSCLASRKTSFMMALCLSSIYEDLKMYQVEFKTMNAKLLMDPKRQIFLDQNMLAVIDELMQALNFNSETVPQKSSLEEPDFYKTKIKLCILLHAFRIRAVTIDRVMSYLNASDKTHTCPPCPAPEDEGGPSVFLFPPKPKDTLMISRTPEVTCVVVDVSHEDPEVKFNWYVDGVEVHNAKTKPREEQYNSTYRVVSVLTVLHQDWLNGKEYKCKVSNKALPAPIEKTISKAKGQPREPQVYVYPPSREEMTKNQVSLTCLVKGFYPSDIAVEWESNGQPENNYKTTPPVLDEDGSFALVSKLTVDKSRWQQGNVFSCSVMHEALHNHYTQKSLSLSPGK
heavy 2: QVQLVESGGGVVQPGRSLRLDCKASGITFSNSGMHWVRQAPGKGLEWVAVIWYDGSKRYYADSVKGRFTISRDNSKNTLFLQMNSLRAEDTAVYYCATNGDYWGQGTLVTVSSASTKGPSVFPLAPSSKSTSGGTAALGCLVKDYFPEPVTVSWNSGALTSGVHTFPAVLQSSGLYSLSSVVTVPSSSLGTQTYICNVNHKPSNTKVDKKVEPKSCDKTHTCPPCPAPEKKGGPSVFLFPPKPKDTLMISRTPEVTCVVVDVSHEDPEVKFNWYVDGVEVHNAKTKPREEQYNSTYRVVSVLTVLHQDWLNGKEYKCKVSNKALPAPIEKTISKAKGQPREPQVYVLPPSREEMTKNQVSLLCLVKGFYPSDIAVEWESNGQPENRYMTWPPVLDSDGSFFLYSKLTVDKSRWQQGNVFSCSVMHEALHNHYTQKSLSLSPGK
light: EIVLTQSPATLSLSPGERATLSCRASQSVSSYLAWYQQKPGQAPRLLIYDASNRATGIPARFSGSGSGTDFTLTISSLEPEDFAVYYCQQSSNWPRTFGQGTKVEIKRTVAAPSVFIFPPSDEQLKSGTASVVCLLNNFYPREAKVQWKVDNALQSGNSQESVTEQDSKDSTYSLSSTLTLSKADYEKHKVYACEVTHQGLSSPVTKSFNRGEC
B2: IL-12(E59A/F60A)/anti-PD-1(D100N) (other)
heavy 1: B1 heavy 1 with G100N
heavy 2: B1 heavy 2 with G100N
light: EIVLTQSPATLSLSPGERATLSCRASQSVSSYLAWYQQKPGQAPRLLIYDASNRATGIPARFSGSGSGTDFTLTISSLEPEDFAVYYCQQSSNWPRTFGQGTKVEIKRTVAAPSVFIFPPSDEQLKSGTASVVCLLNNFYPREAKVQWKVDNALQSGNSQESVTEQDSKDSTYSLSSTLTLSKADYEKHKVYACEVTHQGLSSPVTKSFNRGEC
B3: IL-12(E59A/F60A)/anti-PD-1(D100R) (other)
heavy 1: B1 heavy 1 with G100R
heavy 2: B1 heavy 2 with G100R
light: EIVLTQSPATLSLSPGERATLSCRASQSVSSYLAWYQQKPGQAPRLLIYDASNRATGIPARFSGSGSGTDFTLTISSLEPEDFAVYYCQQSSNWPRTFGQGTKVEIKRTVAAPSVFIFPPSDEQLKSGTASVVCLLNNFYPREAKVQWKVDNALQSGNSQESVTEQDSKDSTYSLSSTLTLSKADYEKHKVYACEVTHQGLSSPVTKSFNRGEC
B4: Fab-IL-12(E59A/F60A)-Fc-CD8 Ab (other)
heavy 1: EVQLQQSGPELVKPGASVKMSCKASGYTFTDYYMKWVKQSHGKSLEWIGHINPNNDDTFYTQKFKGRATLTVDKSSSTAYMQLNSLTSEDSAVYYCVRDDYDGGWFAYWGQGTLVTVSSASTKGPSVFPLAPSSKSTSGGTAALGCLVKDYFPEPVTVSWNSGALTSGVHTFPAVLQSSGLYSLSSVVTVPSSSLGTQTYICNVNHKPSNTKVDKKVEPKSCDKPGSGIWELKKDVYVVELDWYPDAPGEMVVLTCDTPEEDGITWTLDQSSEVLGSGKTLTIQVKAAGDAGQYTCHKGGEVLSHSLLLLHKKEDGIWSTDILKDQKEPKNKTFLRCEAKNYSGRFTCWWLTTISTDLTFSVKSSRGSSDPQGVTCGAATLSAERVRGDNKEYEYSVECQEDSACPAAEESLPIEVMVDAVHKLKYENYTSSFFIRDIIKPDPPKNLQLKPLKNSRQVEVSWEYPDTWSTPHSYFSLTFCVQVQGKSKREKKDRVFTDKTSATVICRKNASISVRAQDRYYSSSWSEWASVPCSGGGGSGGGGSGGGGSGGGGSGRNLPVATPDPGMFPCLHHSQNLLRAVSNMLQKARQTLEFYPCTSEEIDHEDITKDKTSTVEACLPLELTKNESCLNSRETSFITNGSCLASRKTSFMMALCLSSIYEDLKMYQVEFKTMNAKLLMDPKRQIFLDQNMLAVIDELMQALNFNSETVPQKSSLEEPDFYKTKIKLCILLHAFRIRAVTIDRVMSYLNASDKTHTCPPCPAPEDEGGPSVFLFPPKPKDTLMISRTPEVTCVVVDVSHEDPEVKFNWYVDGVEVHNAKTKPREEQYNSTYRVVSVLTVLHQDWLNGKEYKCKVSNKALPAPIEKTISKAKGQPREPQVYVYPPSREEMTKNQVSLTCLVKGFYPSDIAVEWESNGQPENNYKTTPPVLDEDGSFALVSKLTVDKSRWQQGNVFSCSVMHEALHNHYTQKSLSLSPGK
heavy 2: EVQLQQSGPELVKPGASVKMSCKASGYTFTDYYMKWVKQSHGKSLEWIGHINPNNDDTFYTQKFKGRATLTVDKSSSTAYMQLNSLTSEDSAVYYCVRDDYDGGWFAYWGQGTLVTVSSASTKGPSVFPLAPSSKSTSGGTAALGCLVKDYFPEPVTVSWNSGALTSGVHTFPAVLQSSGLYSLSSVVTVPSSSLGTQTYICNVNHKPSNTKVDKKVEPKSCDKTHTCPPCPAPEKKGGPSVFLFPPKPKDTLMISRTPEVTCVVVDVSHEDPEVKFNWYVDGVEVHNAKTKPREEQYNSTYRVVSVLTVLHQDWLNGKEYKCKVSNKALPAPIEKTISKAKGQPREPQVYVLPPSREEMTKNQVSLLCLVKGFYPSDIAVEWESNGQPENRYMTWPPVLDSDGSFFLYSKLTVDKSRWQQGNVFSCSVMHEALHNHYTQKSLSLSPGK
light: DIQMTQTTSSLSASLGDRVTISCRASQDINNYLNWYQQKSDGTIKLLIYYTSRSYSGVPSRFSGSGSGTDYSLTISNRRQEDIATYFCQQGKTLPWTFGGGTKLEIKRTVAAPSVFIFPPSDEQLKSGTASVVCLLNNFYPREAKVQWKVDNALQSGNSQESVTEQDSKDSTYSLSSTLTLSKADYEKHKVYACEVTHQGLSSPVTKSFNRGEC
B5: Fab-IL-12(F60A)-Fc-CD8 Ab (other)
heavy 1: B4 heavy 1 with A287E
heavy 2: B4 heavy 2
light: B4 light
B6: PD-L2(wt)-Fc (Fc fusion)
chain 1: LFTVTVPKELYIIEHGSNVTLECNFDTGSHVNLGAITASLQKVENDTSPHRERATLLEEQLPLGKASFHIPQVQVRDEGQYQCIIIYGVAWDYKYLTLKVKASYRKINTHILKVPETDEVELTCQATGYPLAEVSWPNVSVPANTSHSRTPEGLYQVTSVLRLKPPPGRNFSCVFWNTHVRELTLASIDLQSQMEPRTHPTDKTHTCPPCPAPEDEGGPSVFLFPPKPKDTLMISRTPEVTCVVVDVSHEDPEVKFNWYVDGVEVHNAKTKPREEQYNSTYRVVSVLTVLHQDWLNGKEYKCKVSNKALPAPIEKTISKAKGQPREPQVYVYPPSREEMTKNQVSLTCLVKGFYPSDIAVEWESNGQPENNYKTTPPVLDEDGSFALVSKLTVDKSRWQQGNVFSCSVMHEALHNHYTQKSLSLSPGK
chain 2: B6 chain 1 with D215K, E216K, Y332L, T347L, N371R, K373M, T375W, E381S, A386F, V388Y
notes: also called None

What was measured:
human PD-1 [1] = molecular target: T2, human PD-1 (human, UniProt Q15116 25-167, limits assumed); test: Kd column of Table 18; same value as the antibody in Table 17
T2 construct: nivolumab is called an anti-human PD-1 antibody; also called hPD-1

[2] = molecular target: T3, human IL-12 receptor complex (human, UniProt P42701 24-662; Q99665 24-862); test: cell-based or functional assay
[3] = molecular target: human PD-1 overexpressed on HEK-Blue reporter cells (human, UniProt Q15116 25-288); test: cell-based or functional assay
human PD-1 [4] = molecular target: T2, human PD-1; test: Kd to PD-1 as printed for the construct in Table 19; method not told there; same value as for the parental anti-PD-1 antibody
human CD4 on cells = molecular target: T4, human CD4 on cells (human, UniProt P01730 26-458); test: FACS on CD4+ T cells
T4 construct: whole, on cells; also called CD4+ T cells; HEK-CD4-IFN-γ cells

[5] = molecular target: T3, human IL-12 receptor complex; test: cell-based or functional assay; remark: listed apart in the source
mouse PD-1 = molecular target: T1, mouse PD-1; test: affinity measured in PD-L2-Fc format; method not named
human PD-1 [6] = molecular target: T2, human PD-1; test: as above

T2 sequence (Q15116 25-167 limits assumed): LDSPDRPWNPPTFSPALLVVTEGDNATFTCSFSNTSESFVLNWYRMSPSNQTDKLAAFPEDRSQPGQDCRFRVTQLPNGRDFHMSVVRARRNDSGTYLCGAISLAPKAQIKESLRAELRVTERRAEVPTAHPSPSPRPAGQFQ
human PD-1 overexpressed on HEK-Blue reporter cells, sequence (Q15116 25-288): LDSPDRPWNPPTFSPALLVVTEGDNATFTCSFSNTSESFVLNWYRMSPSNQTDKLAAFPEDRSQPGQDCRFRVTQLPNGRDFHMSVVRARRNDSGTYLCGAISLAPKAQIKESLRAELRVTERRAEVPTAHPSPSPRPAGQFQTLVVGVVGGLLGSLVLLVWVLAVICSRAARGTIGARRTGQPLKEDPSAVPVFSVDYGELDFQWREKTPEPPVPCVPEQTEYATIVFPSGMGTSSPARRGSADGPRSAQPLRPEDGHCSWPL
T3 sequence (Q99665 24-862, chain 2 of 2, other chains not shown): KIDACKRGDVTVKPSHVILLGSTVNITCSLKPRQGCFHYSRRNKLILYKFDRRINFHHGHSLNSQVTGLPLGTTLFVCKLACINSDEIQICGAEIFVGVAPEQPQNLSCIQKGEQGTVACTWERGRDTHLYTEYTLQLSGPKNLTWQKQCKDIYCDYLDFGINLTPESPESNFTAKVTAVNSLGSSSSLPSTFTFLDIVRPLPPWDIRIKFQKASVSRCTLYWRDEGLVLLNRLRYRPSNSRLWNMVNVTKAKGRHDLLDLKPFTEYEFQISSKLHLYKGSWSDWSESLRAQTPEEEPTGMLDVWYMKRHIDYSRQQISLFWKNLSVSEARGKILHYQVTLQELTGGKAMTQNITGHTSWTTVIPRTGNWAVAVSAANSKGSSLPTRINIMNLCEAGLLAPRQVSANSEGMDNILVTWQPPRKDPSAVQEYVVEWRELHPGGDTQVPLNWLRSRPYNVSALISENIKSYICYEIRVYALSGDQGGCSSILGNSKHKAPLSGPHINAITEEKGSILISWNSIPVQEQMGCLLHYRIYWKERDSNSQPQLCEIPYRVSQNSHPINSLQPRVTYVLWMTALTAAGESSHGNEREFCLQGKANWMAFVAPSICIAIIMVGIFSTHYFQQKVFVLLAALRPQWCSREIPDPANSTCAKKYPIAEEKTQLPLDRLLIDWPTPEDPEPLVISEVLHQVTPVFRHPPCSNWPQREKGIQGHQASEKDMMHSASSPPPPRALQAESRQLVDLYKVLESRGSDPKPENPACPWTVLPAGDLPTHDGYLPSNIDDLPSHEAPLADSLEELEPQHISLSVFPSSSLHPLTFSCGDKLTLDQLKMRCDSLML

Row | Binder | Kd (human PD-1 [1]) [nM] | IL-12 signal transduction, % of rIL-12, HEK-IL-12 cells [2] [%] | IL-12 signal transduction, % of rIL-12, HEK-IL-12-PD-1 (high) [3] [%] | IL-12 signal transduction, % of rIL-12, HEK-IL-12-PD-1 (low) [3] [%] | Kd (human PD-1 [4]) [nM] | binding result (human CD4 on cells) | IFN-γ release, % of rIL-12, activated CD4+ T cells [5] [%] | Kd (mouse PD-1) [nM] | Kd (human PD-1 [6]) [nM]
1 | B1 | 130 | < 0.2 | 33 | 17 | 130 |  |  |  | 
2 | B2 | 25 | < 0.2 | 38 | 33 | 25 |  |  |  | 
3 | B3 | 910 | < 0.2 | 10 | 3 | 910 |  |  |  | 
4 | B4 |  |  |  |  |  | no binding | 0 |  | 
5 | B5 |  |  |  |  |  | no binding | 1.2 |  | 
6 | B6 |  |  |  |  |  |  |  | 980 | 1200
